What was measured:
[1] = target: T1, full-length VAR2CSA (FV2) recombinant protein, FCR3 (Plasmodium falciparum FCR3, UniProt Q6UDW7, strain); test: ELISA; recombinant VAR2CSA protein or domain (50 nM in PBS) coated on MaxiSorp plates overnight at 4°C; Nb 50 nM in 1% skim milk in PBS, 90 min RT; detected with rabbit anti-camel and HRP anti-rabbit, OD 490 nm after 20 min; details: both partners purified
T1 construct: VAR2CSA (PfEMP1 family), Plasmodium falciparum strain FCR3, full-length recombinant protein; also called FV2-FCR3; source: recombinant, purified, expressed as described in [33]

[2] = target: T2, native VAR2CSA on the surface of NF54 infected erythrocytes (Plasmodium falciparum NF54 (VAR2CSA …, UniProt Q8I639, strain)); test: flow cytometry on cells; late stage VAR2CSA-expressing IE (FCR3, 7201, NF54) incubated with Nb (0,1 mg/ml), 30 min at 4°C; detected with mouse anti-penta-His and FITC anti-mouse; specific recognition defined by an MFI ratio >1.2; details: one partner purified
T2 construct: VAR2CSA of the P. falciparum parasite line NF54, native protein on infected erythrocytes; also called VAR2CSA-expressing IE (NF54); source: endogenous, on P. falciparum NF54-infected erythrocytes

[3] = target: T3, VAR2CSA DBL3 domain, baculovirus-produced (Plasmodium falciparum FCR3 (implied), UniProt Q6UDW7, strain); test: ELISA; recombinant VAR2CSA protein or domain (50 nM in PBS) coated on MaxiSorp plates overnight at 4°C; Nb 50 nM in 1% skim milk in PBS, 90 min RT; detected with rabbit anti-camel and HRP anti-rabbit, OD 490 nm after 20 min; details: both partners purified
T3 construct: DBL3 domain; also called DBL3X; source: baculovirus expression system, as described in [11], [20]

[4] = target: T4, VAR2CSA DBL6 domain, baculovirus-produced (Plasmodium falciparum FCR3, UniProt Q6UDW7, strain); test: as above; details: both partners purified
T4 construct: DBL6 domain; also called DBL6ε; source: baculovirus expression system, as described in [11], [20]

[5] = target: T5, ID1–ID2a minimal CSA-binding region of VAR2CSA, baculovirus-produced (Plasmodium falciparum FCR3, UniProt Q6UDW7, strain); test: as above; details: both partners purified
T5 construct: VAR2CSA, P. falciparum FCR3; ID1–ID2a region encompassing DBL2X with the flanking parts ID1 and ID2; also called ID1–ID2a (BV); source: baculovirus expression system, as described in [11], [20]

[6] = target: T6, ID1–ID2a minimal CSA-binding region of VAR2CSA, produced in Schneider 2 (S2) cells (Plasmodium falciparum FCR3, UniProt Q6UDW7, strain); test: as above; details: both partners purified
T6 construct: ID1–ID2a region; also called ID1–ID2a (S2); source: Schneider 2 (S2) cells

[7] = target: T4, VAR2CSA DBL6 domain, …; test: as above; details: both partners purified; remark: listed apart in the source
[8] = target: T7, ID1–ID2a minimal CSA-binding region of VAR2CSA, produced in E. coli (Plasmodium falciparum FCR3, UniProt Q6UDW7, strain); test: as above; details: both partners purified
T7 construct: ID1–ID2a region; also called ID1–ID2a (coli); source: E. coli

[9] = target: T8, DBL1-ID2a protein of VAR2CSA (containing minimal CSA-binding region), baculovirus-produced (Plasmodium falciparum FCR3 (assumed for …, UniProt Q6UDW7, strain)); test: far-Western, overlay or dot blot; Western blot: recombinant VAR2CSA domain (0,4 µg/lane) run NON-REDUCED on SDS gel, blotted to nitrocellulose, probed with 50 nM Nb in TBST; rabbit anti-camel and HRP anti-rabbit; details: both partners purified
T8 construct: DBL1-ID2a; source: baculovirus-produced

B1: Nb16 (VHH)
VHH: QVQLQESGGGLVQPGGSLRLSCVASGFTFSSVGSWVRQAPGKGLEWVSAISSFSGLRSYADSVKGRFTISRDNAKNTLYLENSLKPEDTAVYYCAKGTVRVGPWLRGQGTQVTVSS
notes: from an alpaca immunized with full-length VAR2CSA; pHEN6c vector; also called Nanobody 16; VHH; source: E. coli WK6, periplasmic extract, purified (HisTrap); not shown: His6, C-terminal, kept
[1]
  binding result: binds
[2]
  binding result: binds
[3]
  binding result: no binding (tested: 50 nM)

B2: Nb08 (VHH)
VHH: QVQLQESGGGLVQPGGSLRLSCVTSGFTLDYYNIGWFRQAPGKEREGVSCISISDGSTYYADSVKGRFTISRDNAKNTVYLQMNSLKPEDTAVYYCAIRLDGSSCDPEEYDYWGQGTQVTVSS
notes: from an alpaca immunized with full-length VAR2CSA; pHEN6c vector; also called Nanobody 08; VHH; source: E. coli WK6, periplasmic extract, purified (HisTrap); not shown: His6, C-terminal, kept
[4]
  binding result: binds
[1]
  binding result: binds
[2]
  binding result: binds
[3]
  binding result: no binding (tested: 50 nM)

B3: Nb14 (VHH)
VHH: QVQLQESGGGLVQAGGSLRLSCAASGFTLDDYGIGWFRQAPGKEHEGVSSISSGDGSTYYADSVKGRFTISSDNAKNTVYLQNSLKPEDTAVYYCAAGGLHRPLTIATTRGYGIDYWGKGTQVTVSS
notes: from an alpaca immunized with full-length VAR2CSA; pHEN6c vector; also called Nanobody 14; VHH; source: E. coli WK6, periplasmic extract, purified (HisTrap); not shown: His6, C-terminal, kept
[1]
  binding result: binds
[2]
  binding result: binds
[3]
  binding result: no binding (tested: 50 nM)

B4: Nb01 (VHH)
VHH: QVQLQESGGGLVQAGGSLRLSCAASGRTFNSYVMGWFRQAPGKEREFVAAISWSGGNAYYADSVKGRFTISRDNAENTVYLLMNSLKPEDTAVYYCAAALTRLARNEYDYLGQGTQVTVSS
notes: from an alpaca immunized with full-length VAR2CSA; pHEN6c vector; also called Nanobody 01; VHH; source: E. coli WK6, periplasmic extract, purified (HisTrap); not shown: His6, C-terminal, kept
[5]
  binding result: binds
[1]
  binding result: binds
[2]
  binding result: binds
[6]
  binding result: binds
[7]
  binding result: no binding (tested: 50 nM)
[3]
  binding result: no binding (tested: 50 nM)
[8]
  binding result: binds
[9]
  binding result: binds

B5: Nb15 (VHH)
VHH: QVQLQESGGGLVQPGGPLRLSCAASGFTFDNYAMGWFRQAPGKEREFVAAISWSAGTTYYADSVKGRFTISRDNAKNTVSLQMNSLKPEDTAVYYCAAAYDGITMVVEYTNEYEYDYWGQGTQVTVSS
notes: from an alpaca immunized with full-length VAR2CSA; pHEN6c vector; also called Nanobody 15; VHH; source: E. coli WK6, periplasmic extract, purified (HisTrap); not shown: His6, C-terminal, kept
[4]
  binding result: binds
[1]
  binding result: binds
[2]
  binding result: binds
[3]
  binding result: no binding (tested: 50 nM)

B6: Nb11 (VHH)
VHH: QVQLQESGGGLVQAGGSLRLSCAASGRTFSSYAMGWFRQAPGREREFVALISWSGGSTTYADSVKGRFTISRDNAQNTVYLQMNSLKPEDTAVYYCTAAGSFEGEYDYWGQGTQVTVSS
notes: from an alpaca immunized with full-length VAR2CSA; pHEN6c vector; also called Nanobody 11; VHH; source: E. coli WK6, periplasmic extract, purified (HisTrap); not shown: His6, C-terminal, kept
[1]
  binding result: binds
[2]
  binding result: binds
[3]
  binding result: no binding (tested: 50 nM)

B7: Nb02 (VHH)
VHH: QVQLQESGGGLVQAGGSLRLSCAASGRTFSSYAMGWFRQAPGKEREFVAFISWSGGSTSYADSVKGRFTISRDNAKNTVYLQMNSLKPEDTAVYYCVASGSFEGEYDYWGQGTQVTVSS
notes: from an alpaca immunized with full-length VAR2CSA; pHEN6c vector; also called Nanobody 02; VHH; source: E. coli WK6, periplasmic extract, purified (HisTrap); not shown: His6, C-terminal, kept
[1]
  binding result: binds
[2]
  binding result: binds
[3]
  binding result: no binding (tested: 50 nM)

B8: Nb12 (VHH)
VHH: QVQLQESGGGLVQVGGSLRLSCAASGRTFSNYAMGWFRQAPGEEREFVAAISWSDNNTLYTDSVKGRFTISRDNAENTVYLQMNSLEPEDTAVYYCAAGRRPRLRVGLNEFDYWGQGTQVTVSS
notes: from an alpaca immunized with full-length VAR2CSA; pHEN6c vector; also called Nanobody 12; VHH; source: E. coli WK6, periplasmic extract, purified (HisTrap); not shown: His6, C-terminal, kept
[5]
  binding result: binds
[1]
  binding result: binds
[2]
  binding result: binds
[6]
  binding result: binds
[7]
  binding result: no binding (tested: 50 nM)
[3]
  binding result: no binding (tested: 50 nM)
[8]
  binding result: binds
[9]
  binding result: binds

Source: PMC3897377, “Utilizing Nanobody Technology to Target Non-Immunodominant Domains of VAR2CSA” (PLoS ONE, 2014)
